From the supplement of paper PMC9170038 come the findings set out here.

This series concerns MS2 coat protein. Kind of series: apparent KD of MS2 coat protein; designed switch direction (-1 OFF switch, 1 ON switch): -1; higher = weaker reporter binding. The essentials:
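Transcription of designed RNA switches on Illumina chips was done by stalled E. coli RNA polymerase. SNAP-549-labelled MS2 coat protein was then titrated in doubling steps from 0.7 or 1.5 nM to 3 µM, with steps of 0.8–1.5 h at the lowest and 10–20 min at the highest concentration. The per-design median over clusters of curve-fitted normalised fluorescence is reported as apparent KD.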

The mark [1] stands for this setting: input ligand: microRNA oligo, concentration not stated.
The mark [2] stands for this setting: Eterna round: R95, input ligand: FMN 200 uM.
Where [3] appears, read: Eterna round: R95, input ligand: microRNA oligo, concentration not stated.
Where [4] appears, read: Eterna round: R95, input ligand: none.

As to “ACGUUCAUUGAACAUGAGGAUCACCCAUGUGGCCUCCGGGUGGAGGAUAUGCACCAGGCCGAGGUGUAGAAGGCCAUAUACCGA [Riraed] (Eterna round: R96, puzzle: Exclusion NG 3)”, the “apparent KD of MS2 coat protein” value (input ligand: FMN 200 uM) amounted to 0.155 µM, the “apparent KD of MS2 coat protein” value under setting [1] worked out at 0.049 µM and the “apparent KD of MS2 coat protein” value (input ligand: none) came out at 0.0814 µM.

As for “AAUAACAGAGGAUAUACUAUAAUAUGAAUAAAAUAAAUAAAACAUGAGGAUCACCCAUGUAGAAGGCUGAAUAA [JMF's Not so obvious solution 10] (puzzle: Exclusion 2)”, the “apparent KD of MS2 coat protein” value is, setting by setting: under setting [2], 0.0171 µM; under setting [3], 0.02 µM; under setting [4], 0.0211 µM.

With “GGUUGGCGAGGAUAUACAUGAGGAUCACCCAUGUGAGAAGAAAAAGUGAGGAAGAAAAGUAGAAGGCGCUGACG [Mat - Exclusion 3 - Mod of Salish D1] (puzzle: Exclusion 3)”, the “apparent KD of MS2 coat protein” value reads like this: under setting [2], 0.074 µM; under setting [3], 0.103 µM; under setting [4], 0.0815 µM.

On to “AGCUUUUUGUUCGUCUUACACAUGAGGAUCACCCAUGUGUCGGACCGCAUCGAUAGAUGUAGACCGAGAAGCAUGGG [Omdei Mir OFFv1 C9] (Eterna round: R97, puzzle: Sensor, turn-off variant 1)”, for which the “apparent KD of MS2 coat protein” value runs as follows: (input ligand: FMN 200 uM) 0.0956 µM; (input ligand: none) 0.0989 µM.

For “AAUGAUUGACGAGGAUAUUGUGGUGAAACACGACGAGAAGGCGUAUGUCACAUGAGGAUCACCCAUGUGAACUUUGUGGAUAUA [Ex NG1 #70] (Eterna round: R96, puzzle: Exclusion NG 1)”, the “apparent KD of MS2 coat protein” value is, setting by setting: (input ligand: FMN 200 uM) 0.0304 µM; under setting [1], 0.0333 µM; (input ligand: none) 0.0388 µM.

In the case of “AUUGUUUGAUACCUCUAAUACAUGAGGAUCACCCAUGUUAUCGAGGAUAUGCAGAAGAGAGGAGAGCAGAAGGCGAAGUAAGAG [JR_ExcNG3_Sub027] (Eterna round: R96, puzzle: Exclusion NG 3)”, the “apparent KD of MS2 coat protein” value by setting is: (input ligand: FMN 200 uM) 0.0215 µM; under setting [1], 0.0159 µM; (input ligand: none) 0.0196 µM.

For “UAUUAAACAUAGGAUAUCGAAAAUAUCAUUUAACGAGAAGGAUGAACAUGAGGAUCACCCAUGUGGUAUCAUGG [Mat - Exclusion 6 - JL Mod - D15] (puzzle: Exclusion 6)”, the “apparent KD of MS2 coat protein” value runs as follows: under setting [2], 0.426 µM; under setting [3], 0.289 µM; under setting [4], 0.148 µM.

For “ACAUGAGGAUCACCCAUGUCCGUCUGGUCUGUCUCGGCUGUCGAGGAUAUAGCUCGGUAUCCGCGCUAGAAGGCGGGAGCCGGU [Aenatbe mod 92] (Eterna round: R96, puzzle: Exclusion NG 3)”, the “apparent KD of MS2 coat protein” value is, setting by setting: (input ligand: FMN 200 uM) 0.0309 µM; under setting [1], 0.0318 µM; (input ligand: none) 0.035 µM.

As for “AUUCAACAUGAGGAUCACCCAUGUGAGGAUAUGCGAGUAUAGACUUCGGUCUGAUAGAGCAGAAGGCGCAGAUA [EX1 #6] (Eterna round: R97, puzzle: Exclusion 1)”, the “apparent KD of MS2 coat protein” value runs as follows: (input ligand: FMN 200 uM) 0.0487 µM; (input ligand: none) 0.0328 µM.

As to “GUUCCGGGAGGAUAUACAUGAGGAUCACCCAUGUUCACCAGCUUUAGCUACGACCUAUGUAGAAGGUCUGGAGA [Eternabot (L1) Solution 36] (Eterna round: R97, puzzle: Exclusion 3)”, the “apparent KD of MS2 coat protein” value (input ligand: FMN 200 uM) was 0.0467 µM and the “apparent KD of MS2 coat protein” value (input ligand: none) is 0.0397 µM.

As to “UGAGUGUUAGGAUAUCGCGGUUAGGCGAGUUGCUUAAUGAUCGAGAAGGGACAUGAGGAUCACCCAUGUGGGAC [Eternabot (L1) Solution 40] (Eterna round: R97, puzzle: Exclusion 4)”, the “apparent KD of MS2 coat protein” value (input ligand: FMN 200 uM) was found to be 0.127 µM and the “apparent KD of MS2 coat protein” value (input ligand: none) worked out at 0.112 µM.

“CCUACUCAGCGAGGAUAUGUAACGGUGACUAGGGACGUCUACAUGAGGAUCACCCAUGUGACUAAGCAGAAGGCGCAGAGCCCA [Learve] (Eterna round: R96, puzzle: Exclusion NG 2)”: the “apparent KD of MS2 coat protein” value is 0.0542 µM (input ligand: FMN 200 uM), 0.0331 µM under setting [1] and 0.0477 µM (input ligand: none).

On to “GCAUUUUGGUCGUCUUAUAACAUGAGGAUCACCCAUGUGUUGAGCCCAACUUAUUGUACUCAUGCUAUGGCCUGAUG [Eternabot (L2) Solution 27] (Eterna round: R97, puzzle: Sensor, turn-off variant 1)”, for which the “apparent KD of MS2 coat protein” value was determined as 0.0812 µM (input ligand: FMN 200 uM) and 0.0842 µM (input ligand: none).

Regarding “GGAUUUACUGAGGAUAUUGCAUCACCCGAUUGAUAAGAAGGCAGAACAUGAGGAUCACCCAUGUGGGUAGUCAA [Bingo-Bango-2] (Eterna round: R97, puzzle: Exclusion 6)”, the “apparent KD of MS2 coat protein” value runs as follows: (input ligand: FMN 200 uM) 0.0802 µM; (input ligand: none) 0.0393 µM.

As to “GAAAAGAAAGGAUAUACAGGGAAAUGAACCGCACGUAAACCACAUGAGGAUCACCCAUGUAGAAGGUUCAGUGC [Edenusra] (puzzle: Exclusion 2)”, the “apparent KD of MS2 coat protein” value under setting [3] turned out to be 0.0106 µM.

For the sequence “CCGCUAAGAGCAGGAUAUGAGUAACAUGAGGAUCACCCAUGUGGACCAUGAAACAGUCCACGCAGUCAGAAGGGUUACGUGGCA [Eternabot solution 33] (Eterna round: R96, puzzle: Exclusion NG 2)”, the “apparent KD of MS2 coat protein” value by setting is: (input ligand: FMN 200 uM) 0.0388 µM; under setting [1], 0.0231 µM; (input ligand: none) 0.0343 µM.

For “GUAAUUGAUGUCAGGAUAUCAGGGCCACAAUGCUAUGAGAAGGGACAUGAGGAUCACCCAUGUAAAAGUUCAUG [BmEX4 B.16] (Eterna round: R97, puzzle: Brourd's mod of Exclusion 4)”, the “apparent KD of MS2 coat protein” value turned out to be 0.18 µM (input ligand: FMN 200 uM) and 0.0698 µM (input ligand: none).

Regarding “GAAAAUCGUAAGGAUAUCAGCGAAGAAGUACACUGAGAAGGUAUGACAUGAGGAUCACCCAUGUAGCCCGCUUA [Eternabot (L1) Solution 38] (Eterna round: R97, puzzle: Exclusion 6)”, the “apparent KD of MS2 coat protein” value reads like this: (input ligand: FMN 200 uM) 0.018 µM; (input ligand: none) 0.0132 µM.

For “UCGCUGCGAGGAUAUACAUGAGGAUCACCCAUGUACGGGUCCGGGUCUUCGUCCAUUGGUAGAAGGCGCAGUGA [JL Laongeedie mod 7] (puzzle: Exclusion 3)”, the “apparent KD of MS2 coat protein” value under setting [3] is 0.0225 µM.

On to “AAUAACAGAGGAUAUACUAUUUUAUGUGUUUAUUGUUUUAAACAUGAGGAUCACCCAUGUAGAAGGCUGAUUAA [JMF 45] (puzzle: Exclusion 2)”, for which the “apparent KD of MS2 coat protein” value under setting [3] is 0.0619 µM.

Consider “AUAUUAAGUGUGAGGAUAUGCUGGUCCUUGGAUCAGCAGAAGGCACAUGAGGAUCACCCAUGUAAUAUAUUUAU [Mat - Exclusion 4 - JL Mod - D47] (puzzle: Brourd's mod of Exclusion 4)”, for which, under setting [3], the “apparent KD of MS2 coat protein” value was 0.0786 µM.

Turning to “UUUUGCUCAGGAUAUACAUGAGGAUCACCCAUGUAUAUUGAAAAUAAUACAUGGGAAUGUAGAAGGGAGCUCAU [Omei Ex3 Pseudoloop 20] (Eterna round: R97, puzzle: Exclusion 3)”, the “apparent KD of MS2 coat protein” value came to 0.127 µM (input ligand: FMN 200 uM) and 0.168 µM (input ligand: none).

Regarding “AAAUCCGCUGAGGAUAUUAUGAGUGAGAGCUCAUGAGAAGGCGGUACAUGAGGAUCACCCAUGUCUAUGGGCAA [Ex-6 Malc#26] (puzzle: Exclusion 6)”, under setting [3], the “apparent KD of MS2 coat protein” value came to 0.329 µM.

Take “UGUAACCGAGGAUAUACAUGAGGAUCACCCAUGUAAUGUAGUAUAGUGUAUGUAAGGUGUAGAAGGUGGGAUGU (Eterna round: R97, puzzle: Exclusion 3)”: the “apparent KD of MS2 coat protein” value (input ligand: FMN 200 uM) amounted to 0.0484 µM and the “apparent KD of MS2 coat protein” value (input ligand: none) was determined as 0.0747 µM.

For the sequence “AUUAUGUUAGGAUAUGCUUAUGGUGGAUAGUCCAGUAUGAUGUAGAAGGGACAUGAGGAUCACCCAUGUGCUGA [EX4 #34] (Eterna round: R97, puzzle: Exclusion 4)”, the “apparent KD of MS2 coat protein” value by setting is: (input ligand: FMN 200 uM) 0.0469 µM; (input ligand: none) 0.0419 µM.

Regarding “GCAGCAUAGUCGGAAACGACAGAACAUGAGGAUCACCCAUGUUAGGAUAUGGUCUGGAUUACAGGCCAGAAGGGACAAAGCUGC [Eli exng3 - 009] (Eterna round: R96, puzzle: Exclusion NG 3)”, the “apparent KD of MS2 coat protein” value reads like this: (input ligand: FMN 200 uM) 0.0348 µM; under setting [1], 0.0297 µM; (input ligand: none) 0.0399 µM.

As to “AAUUCACAUGAGGAUCACCCAUGUCAGGAUAUGGUUUUAUUUUUUUCUUUUCUUGAUUCCAGAAGGGACAGCUA (puzzle: Exclusion 1)”, the “apparent KD of MS2 coat protein” value under setting [3] was found to be 0.0708 µM.

Take “GUGUAGAUAGGAUAUACAUGAGUCUAGCGAAGCUAGAUUCUACAUGAGGAUCACCCAUGUAGAAGGGUCUACAC [Fiskers Ex 2 - 28] (puzzle: Exclusion 2)”: under setting [3], the “apparent KD of MS2 coat protein” value came to 0.0143 µM.

As for “CCUUGUGUUGAGGAUAUGCGCCGGCUCGCUGGCGCAGAAGGCGGCACAUGAGGAUCACCCAUGUCAGUUCGCGA [salish99_ex6_r004_012] (Eterna round: R97, puzzle: Exclusion 6)”, the “apparent KD of MS2 coat protein” value worked out at 0.336 µM (input ligand: FMN 200 uM) and 0.0292 µM (input ligand: none).

Consider “AGCGUGGAGACAGGAUAUGAGAAUAGAUAGAACUCAGAAGGGUCACAUGAGGAUCACCCAUGUAAAGUCUUGAGGAUGAGUGGU [Prohibition 5 - Jieux - Exclusion NG 1] (Eterna round: R96, puzzle: Exclusion NG 1)”, for which the “apparent KD of MS2 coat protein” value by setting is: (input ligand: FMN 200 uM) 0.119 µM; under setting [1], 0.029 µM; (input ligand: none) 0.0511 µM.

With “UAUUAGCAAGCAAGAUCCUACAUGAGGAUCACCCAUGUGCUCGUCUUAAGCCCAGAAUUACUGGGCGCUCGUCUUAU [Winner reversed engineered 21] (Eterna round: R97, puzzle: Sensor, turn-off variant 1)”, the “apparent KD of MS2 coat protein” value runs as follows: (input ligand: FMN 200 uM) 0.521 µM; (input ligand: none) 0.684 µM.
